Measured values taken from paper PMC3956856, “Interaction of Kinase-Interaction-Motif Protein Tyrosine Phosphatases with the Mitogen-Activated Protein Kinase ERK2” (PLoS ONE, 2014).
“Also recorded” adds a separate entry of the source.

T1: STEPKIM peptide (STEP residues 213-229) (mouse, UniProt P54830 213-229)
T1 construct: STEP (PTPN5, striatal enriched protein tyrosine phosphatase), residues 213-229 (KIM); mouse is stated for the STEP 213-539 construct; source: synthetic peptide (Biosynthesis, Inc.), HPLC purified, >98% purity
T1 peptide (looked up): MGLQERRGSNVSLTLDM

T2: STEP KIMKIS peptide (STEP residues 213-256) (mouse, UniProt P54830 213-256)
T2 construct: STEP (PTPN5), residues 213-256 (KIM and KIS); mouse is stated for the STEP 213-539 construct; source: synthetic peptide (Biosynthesis, Inc.), HPLC purified, >98% purity
T2 peptide (looked up): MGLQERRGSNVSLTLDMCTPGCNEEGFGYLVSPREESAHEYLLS

T3: PTPSL KIMKIS (PTPSL residues 332-373) (human, UniProt Q15256 332-373)
T3 construct: PTPSL/PTPBR7 (PTPRR), residues 332-373 (KIM and KIS); human is stated for the PTPSL 332-655 construct; Recombinant, not synthetic; source: final SEC
T3 chain (looked up): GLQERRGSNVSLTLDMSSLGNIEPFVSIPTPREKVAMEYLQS

B1: extracellular signal-regulated kinase 2 (ERK2), unphosphorylated (enzyme, UniProt P63086 1-358, looked up)
chain: MAAAAAAGPEMVRGQVFDVGPRYTNLSYIGEGAYGMVCSAYDNLNKVRVAIKKISPFEHQTYCQRTLREIKILLRFRHENIIGINDIIRAPTIEQMKDVYIVQDLMETDLYKLLKTQHLSNDHICYFLYQILRGLKYIHSANVLHRDLKPSNLLLNTTCDLKICDFGLARVADPDHDHTGFLTEYVATRWYRAPEIMLNSKGYTKSIDIWSVGCILAEMLSNRPIFPGKHYLDQLNHILGILGSPSQEDLNCIINLKARNYLLSLPHKNKVPWNRLFPNADSKALDLLDKMLTFNPHKRIEVEQALAHPYLEQYYDPSDEPIAEAPFKFDMELDDLPKEKLKELIFEETARFQPGYRS
notes: ERK2 (extracellular signal-regulated kinase 2), unphosphorylated; also called MAPK; source: final SEC (Superdex 75 26/60)

Key:
ERK2 [1] = target: T4, ERK2 (Rattus norvegicus, UniProt P63086); assay: SAXS of resting-state complexes with ERK2; conditions: ERK2:PTPSL complex; 50 mM HEPES pH 6.8, 150 mM NaCl, 5 mM dithiothreitol
T4 construct: gene Mapk1; made in house

ERK2 [2] = target: T4, ERK2; assay: Isothermal titration calorimetry with ERK2; type: binding
Protocol: The PTPSLKIM peptide (residues 331–348), STEPKIM (residues 213–229) and STEPKIMKIS (residues 213–256) were synthesized, HPLC purified and verified by mass spectrometry (MS) (>98% purity; Biosynthesis, Inc.). Expression and purification of ERK2 and PTPSLKIMKIS (residues 332–373) was carried out as previously described, [15]. PTPSL (residues 332–655, human), STEP (residues 213–539, mouse) and PSChimera (PTPSL residues 332–373 with STEP residues 257–539; gene synthesized by DNA 2.0) were expressed and purified using the protocol previously described in detail for STEPCAT (residues 244–539). The DUSP16 MAPK binding domain (residues 5–138, human) was expressed and purified as previously described. All purified proteins were stored at −80 °C until use at which point they were thawed and exchanged into the appropriate buffer using size exclusion chromatography (SEC; Superdex 75 26/60; GE Healthcare). The final protein buffer was dependent on the experiment performed. For ITC experiments, the final SEC purification was performed in ITC buffer (10 mM Tris pH 7.5, 150 mM NaCl, 0.1 mM EDTA, 0.5 mM TCEP); for SAXS experiments, the final SEC purification was performed in SAXS buffer (50 mM HEPES pH 6.8, 150 mM NaCl, 5 mM dithiothreitol). PTPSLKIM, STEPKIM and STEPKIMKIS peptides were solubilized in ITC buffer prior to ITC measurements.
ITC experiments were performed at 25 °C using a VP-ITC microcalorimeter (Microcal Inc.). Titrant (10 μL per injection) was injected into the sample cell over a period of 20 seconds with a 250 second interval between titrations to allow for complete equilibration and baseline recovery. 28 injections were delivered during each experiment and the solution in the sample cell was stirred at 307 rpm to ensure rapid mixing. To determine the thermodynamic parameters (ΔH, ΔS, ΔG) and binding constants (K) of the ERK2:PTPSLKIM, ERK2:PTPSL, ERK2:STEP and ERK2:PSChimera interactions, PTPSLKIM, PTPSL, STEP and PSChimera were titrated into ERK2. To determine the same parameters for the ERK2:STEPKIM, ERK2:PTPSLKIMKIS and ERK2:STEPKIMKIS interaction, ERK2 was titrated into the peptides. Titrants were chosen based on the amount of purified protein/peptide available for the experiment. For all titrations the concentrations were slightly varied to ensure independence of the Kd from the protein/peptide concentrations. Data were analyzed with a one-site binding model assuming a binding stoichiometry of 1∶1 using Origin 7.0 software. A nonlinear least-squares algorithm and the titrant and sample cell concentrations were used to fit the heat flow per injection to an equilibrium binding equation, providing values of the stoichiometry (n), change in enthalpy (ΔH) and binding constant (K). All data were repeated in triplicate.

p38α = conditions: values previously published, ref [14], [15], [17], [18]; cited from earlier work
Source text: We used ITC measurements to determine the binding affinity of STEP and PTPSL for unphosphorylated ERK2 ( Table 1; Figure S1). […] This complex has a ∼3-times lower Kd (tighter binding) than the next tightest complex, ERK2:PTPSL, and a nearly 70-fold greater affinity than the weakest complex, p38α:HePTP [15]. Like STEP, PTPSL binds ERK2 more tightly (∼3.5-fold) than p38α. We also tested peptides that include the kinase specificity s ... || We also generated a chimeric protein in which we fused the PTPSLKIMKIS to STEPCAT (PSchimera; Figure 1A ). […] Thus, they only adopt a single conformation when they bind their respective MAPKs. This is different from the MAPK-binding domains (MKBD) of MAPK phosphatases (MKP; dual specificity phosphatases; DUSPs), [26]. In MKPs, the KIM sequence is part of a stable, folded domain and thus adopts a single, ordered conformation in both the unbound and MAPK-bound states, [28]. […] Our ... || (+ 1 further places)

[3] = target: B1; assay: ITC; PTPSLKIM, PTPSL, STEP or PSChimera titrated into ERK2 in the cell; 25 °C; 10 mM Tris pH 7.5, 150 mM NaCl, 0.1 mM EDTA, 0.5 mM TCEP; one-site model; triplicate; conditions: both partners purified
ERK2 [4] = target: T4, ERK2; conditions: structural model from cross-linking, MS and molecular modeling; ref [24]; cited from earlier work
Source text: In this model, PTPSLCAT binds ERK2 in an orientation in which the catalytic site is positioned near the ERK2 phosphorylation loop. This is different from the p38 ... || Figure 3 Regulatory protein-MAPK interaction strengths. The binding strengths of each KIM-PTP (KIM peptides and KIM-containing MKBDs (in orange font), light blue; KIMKIS peptides, light purple; proteins, light pink) to p38α and ERK2 represented from weakest to tightest (largest Kd to smallest Kd) binding affinity; ‘^†’ indicates values previously published, [15], [17], [18]. KIM-PTP:MAPK complexes determined to be extended using SAXS written in normal text; KIM-PTP:MAPK complexes determined to be compact written in italics; *, compact nature of the ERK2-PTPSL complex determined by ...

[5] = target: T1, STEPKIM peptide (STEP residues 213-229); assay: ITC; ERK2 titrated into STEPKIM, PTPSL KIMKIS or STEP KIMKIS in the cell; 25 °C; 10 mM Tris pH 7.5, 150 mM NaCl, 0.1 mM EDTA, 0.5 mM TCEP; one-site model; triplicate; conditions: both partners purified
[6] = target: T2, STEP KIMKIS peptide (STEP residues …); assay: as above; conditions: both partners purified
[7] = target: T3, PTPSL KIMKIS (PTPSL residues 332-373); assay: as above; conditions: both partners purified

relative binding to ERK2 (in words) (ERK2 [2]; ERK2, ITC) | tighter binding to ERK2 than the PTPSLKIM peptide (ERK2 [2]; ERK2, ITC, versus PTPSLKIM) | tighter binding to ERK2 than to p38α (fold difference in affinity) (ERK2 [2]; ITC Kd, ERK2 versus p38α) | TΔS (ERK2 [2]; unphosphorylated ERK2, ITC, 25 °C, 10 mM Tris pH 7.5, 150 mM NaCl, 0.1 mM EDTA, 0.5 mM TCEP, average and standard deviation, triplicate) | Kd [3] | dH [3] | dH [5] | dH [6] | dH [7] | Molecule | aggregation of the ERK2:PTPSL complex in SAXS samples (ERK2 [1]) | affinity for ERK2 compared with p38α (in words) (ERK2 [2]; ITC, ERK2 versus p38α) | Kd (p38α) | shape of the ERK2:PTPSL resting-state complex (in words) (ERK2 [4])
more strongly than does HePTP | ~4 times | ~3.5 fold | -12.8 ± 2.1 kcal/mol | 108 nM | -22.3 kcal/mol |  |  |  | PTPSL (residues 332-655, human) (domain or fragment, UniProt Q15256 332-655, looked up, PTPSL/PTPBR7 (PTPRR, PTP STEP-like), human, residues 332-655 (KIM, KIS and catalytic domain); The results loosely call this construct 'full-length PTPSL'; the construct is residues 332-655; also called PTPBR7; PTPRR; source: final SEC) GLQERRGSNVSLTLDMSSLGNIEPFVSIPTPREKVAMEYLQSASRILTRSQLRDVVASSHLLQSEFMEIPMNFVDPKEIDIPRHGTKNRYKTILPNPLSRVCLRPKNVTDSLSTYINANYIRGYSGKEKAFIATQGPMINTVDDFWQMVWQEDSPVIVMITKLKEKNEKCVLYWPEKRGIYGKVEVLVISVNECDNYTIRNLVLKQGSHTQHVKHYWYTSWPDHKTPDSAQPLLQLMLDVEEDRLASQGRGPVVVHCSAGIGRTGCFIATSIGCQQLKEEGVVDALSIVCQLRMDRGGMVQTSEQYEFVHHALCLYESRLSAET | persistently exhibited the typical hallmarks of aggregation | higher binding affinity for ERK2 than for p38α; also recorded: bind more strongly to ERK2 | 382 ± 65 nM | compact, with ERK2 and PTPSL associating in a side-by-side manner
 |  |  |  |  |  | -27.9 kcal/mol | -29.2 kcal/mol | -21.6 kcal/mol | B1 |  |  |  | 
